The values below come from the RNAGym collection of RNA variant scans (doi:10.1073/pnas.2313332121).

Fewer inactive variants are shown than the library holds.

B1: TPR 5TU (parent)
chain: GGAUCUUCUCGAUCUAACAAAAAAGACAAAUCUGCCACAAAGCUUGAGAGCAUCUUCGGAUGCAGAGGCGGCAGCCUUCGGUGGCGCGAUAGCGCCAACGUUCUCAACUAUGACACGCAAAACGCGUGCUCCGUUGAAUGGAGUUUAUCAUG

The variants in this data set derive from B1. Description: polymerase ribozyme fitness, log enrichment relative to wild type (log ratio); higher = more active; in vitro selection for triplet polymerase activity. The method, boiled down:
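A heterodimeric triplet polymerase ribozyme had each of its subunits mutagenized by PCR into a library, which was transcribed. One round of in vitro selection, done in triplicate, annealed each library with a biotinylated primer, its partner subunit and triplets, then incubated it frozen at −7 °C before gel excision of extended constructs, streptavidin-bead capture and RT-PCR. Fitness is the logarithm of genotype enrichment relative to wild-type enrichment, based on Illumina sequencing of inputs and outputs and inverse-variance-weighted replicate averages. A base-2 logarithm is used, and genotypes were kept only with ≥10 input reads and ≥1 read per output.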
For C10U A41G A64G G65C A91C, the “polymerase ribozyme fitness (log ratio)” value is not above -4.2.
For C96U C131U, the “polymerase ribozyme fitness (log ratio)” value was 0.576.
For A41U G124A the value was -1.29; for A40C U148A, -3.51.
For A24C G88U C95G C96U, the “polymerase ribozyme fitness (log ratio)” value was not above -4.2.
Turning to G58A G83A A147C, the “polymerase ribozyme fitness (log ratio)” value is -0.252.
Consider C10U A40G C105G, for which the “polymerase ribozyme fitness (log ratio)” value was not above -4.2.
For C36G U44G G71U C96A C108G G140C the value was not above -4.2; for U31A U55G C93G A110C A115U C123G, not above -4.2; for G25U G84A C131U G136A U144G, -1.89.
A22C C63U G67C G84U A98C G128C U144A U151A: the “polymerase ribozyme fitness (log ratio)” value was not above -4.2.
In the case of A21U C36G C51U U55C G92U U148A, the “polymerase ribozyme fitness (log ratio)” value was not above -4.2.
For C63U C95U, the “polymerase ribozyme fitness (log ratio)” value is -0.692.
For A16G U31G A49U the value was not above -4.2; for C54U C105A C131G, not above -4.2; for C85U A115U G140A, -3.77.
For U7A G92U the value was -3.96.
Turning to C32U C36A U55G C93G G133U G141U, the “polymerase ribozyme fitness (log ratio)” value was -4.01.
With U31A C32G A41U G67U G80C G86C A147U the figure was not above -4.2.
For G58A U145G the value was 0.851.
With A40U C54A C87U A89C, the “polymerase ribozyme fitness (log ratio)” value was -2.61.
With U55G C114U the figure was -2.17; with G62C G94C, -2.03; with C35U U56A U61A C63U A64G, not above -4.2.
For A28G U44G A91U C99U the value was not above -4.2; for G70A A73U G133A U135G, not above -4.2.
In the case of U13G A37U C43U A52C A73C G84C U109C G140A, the “polymerase ribozyme fitness (log ratio)” value was not above -4.2.
With C69A A73G G92C the figure was -1.54; with C93U A97C G140A, not above -4.2; with C57A C87A C116G U127A C129U A137G C149U, not above -4.2.
For C85G C93U C116U U127G the value was not above -4.2; for U44G G59C U78C G117U G143C, not above -4.2.
As to U6G G46A U56C C76G G81C A91C A106G A137U U144C U151A, the “polymerase ribozyme fitness (log ratio)” value is not above -4.2.
As for C57U C105G, the “polymerase ribozyme fitness (log ratio)” value was -0.3.
Consider A41C U127C, for which the “polymerase ribozyme fitness (log ratio)” value was -2.04.
For C18A C38U C51U C96G C116G U148A the value was not above -4.2; for G94A U146G, -1.25.
For A26C A52C C69U G100A C125A the value was not above -4.2.
For C96U A107G G117A the value was not above -4.2; for C79G U148A, not above -4.2.
With C14A U31A U55A G92A C125U A142U, the “polymerase ribozyme fitness (log ratio)” value is not above -4.2.
With U15G A28G C79A G124U the figure was not above -4.2; with A37G G74U C87G A115C, not above -4.2.
For A21U C38A U102A A120U A147C the value was -2.82.
A21U A22U G42A G70C C93U G140C G152U: the “polymerase ribozyme fitness (log ratio)” value is not above -4.2.
For G140U A147U the value was -2.9; for A28U G92A G140C, -3.61; for G84A A98G C105A, -1.05.
Turning to C96U A107C, the “polymerase ribozyme fitness (log ratio)” value was -3.14.
As to U61G C76G C123U, the “polymerase ribozyme fitness (log ratio)” value is not above -4.2.
For C8U C85G the value was -3.44.
On to C54A U101G U134C U139G U144A, for which the “polymerase ribozyme fitness (log ratio)” value is -1.85.
On to U4G U53A C85U G133C, for which the “polymerase ribozyme fitness (log ratio)” value is -2.45.
For C5A A16U G46C G84U A91G U109C A115U G136C, the “polymerase ribozyme fitness (log ratio)” value is not above -4.2.
For G81A C118A the value was -1.82; for A28C G58U A113G A119U, not above -4.2; for A98G C132G G136C, -4.12.
For G46A U55A the value was -0.993; for U61A C149A, not above -4.2.
For U4G U55G the value was -0.607.
Turning to A22U U56A C93G A98G C108A C114G U151A, the “polymerase ribozyme fitness (log ratio)” value was not above -4.2.
Turning to A20U U56A A64C A107G G126U, the “polymerase ribozyme fitness (log ratio)” value was not above -4.2.
For G58A C85U A115U U144G, the “polymerase ribozyme fitness (log ratio)” value is -1.46.
For A40U G92C U102C C103G A113G C132G U146C G152U the value was not above -4.2; for G86A C99G, -3.06; for U61G C95U, -2.07.
With A16U A17G G59C U77G G94U the figure was -3.85.
For the variant G88A G124C, the “polymerase ribozyme fitness (log ratio)” value was not above -4.2.
As for C27A C85A G86U A91C U101A C118G, the “polymerase ribozyme fitness (log ratio)” value is not above -4.2.
Take A23U C43G G48A G92A A98G A147U G152C: the “polymerase ribozyme fitness (log ratio)” value is -3.84.
Turning to U6G G83A, the “polymerase ribozyme fitness (log ratio)” value was -0.0531.
As for C93U A106C, the “polymerase ribozyme fitness (log ratio)” value was -1.75.
Regarding U53A G141U, the “polymerase ribozyme fitness (log ratio)” value turned out to be 0.504.
For G83U G126A the value was -0.669; for G46U G68C G94C, not above -4.2.
Regarding C85G C149U, the “polymerase ribozyme fitness (log ratio)” value was -2.46.
With A22U C96A the figure was -0.026; with C36U C54A G65C G67U G68U C95G A110C A113U C116U G143C C149A, not above -4.2.
On to G65A C85A, for which the “polymerase ribozyme fitness (log ratio)” value is -2.26.
Consider A17G G84C, for which the “polymerase ribozyme fitness (log ratio)” value was -1.85.
For A19G C32A U56G C57U U82A, the “polymerase ribozyme fitness (log ratio)” value was not above -4.2.
For G1U the value was 0.22; for A40C G81A, 0.951; for A19G C57U G67U G94A C105A, not above -4.2.
For A19U A120U the value was -0.806.
With A20C U31G A49C A52C U53C the figure was not above -4.2; with C18G C85A, -1.49; with G46A U56G A91G U148A, not above -4.2.
Regarding C14U C54U G84A G133U, the “polymerase ribozyme fitness (log ratio)” value was -3.87.
For U55A G86A C149U A150U the value was -1.65; for U53C G86U C96A U146A, -2.73; for A47G G84U U135A, -2.45.
For C14A A52G U55G C99U the value was -3.48; for G34A C57G A66U A115U U134C A142U U148G, -3.95.
With U56A C87G G94C U104C G117U A119U U134C the figure was -3.94.
Take A28U A39G A66G C76A G81C: the “polymerase ribozyme fitness (log ratio)” value is not above -4.2.
Regarding A12C C85G A122C, the “polymerase ribozyme fitness (log ratio)” value is -2.14.
U9C A28C C36A C87U C116U: the “polymerase ribozyme fitness (log ratio)” value is not above -4.2.
For the variant G84A G136C, the “polymerase ribozyme fitness (log ratio)” value was -3.25.
For the variant C36G U146G, the “polymerase ribozyme fitness (log ratio)” value is -3.97.
Take C10G U44G U56G C57U A66C C87U A106G A142U: the “polymerase ribozyme fitness (log ratio)” value is not above -4.2.
With C79A G83A the figure was -3.78.
For A28U C54U C63U G71U C108U C114U A137U U139G A150G the value was not above -4.2.
For G50A C95U C125U the value was -2.44; for C54U A150G, -0.995; for U6G A52C, -0.94.
For C93G A97U, the “polymerase ribozyme fitness (log ratio)” value is -3.39.
As to C43U G48A C57G C85U, the “polymerase ribozyme fitness (log ratio)” value was not above -4.2.
For A22U A73C G92U A110G U111C G141C the value was not above -4.2; for A19G A73U G94C, -2.39; for U4C G74A, -3.29.
With C18U U55A G81C C93U C105U C118G the figure was -1.85; with A24C C32U A49C C85G G86A A91G C123G C132A, not above -4.2.
For G34U A37U U55A G136U the value was not above -4.2; for U13C C27A A49C U56A A97U, not above -4.2; for G34C A39C U55A A60U A73U U146G, not above -4.2.
With A120G G141C A147U, the “polymerase ribozyme fitness (log ratio)” value was -1.01.
Regarding C14U A52C U56A A97U A98U, the “polymerase ribozyme fitness (log ratio)” value was -4.07.
Regarding C18G A23U A39G U55G A73U A89G A97U, the “polymerase ribozyme fitness (log ratio)” value is not above -4.2.
With G67U U146C the figure was -2.47.
Regarding C87U A91U A98G A138G G152A, the “polymerase ribozyme fitness (log ratio)” value is not above -4.2.
C54U C57G G84U C96A: the “polymerase ribozyme fitness (log ratio)” value was -3.23.
Regarding C93U C95U C149A, the “polymerase ribozyme fitness (log ratio)” value was not above -4.2.
On to U33A G48A U78C G84A C105U, for which the “polymerase ribozyme fitness (log ratio)” value is not above -4.2.
For A12U A17G C35A U44A A47C A52U C95U G152U the value was not above -4.2.
Consider C51A C85U, for which the “polymerase ribozyme fitness (log ratio)” value was -1.01.
For A21U C36A G86A A98C the value was -4.1.
With C14G A24C A60G G62A G65C C87U U145G the figure was not above -4.2; with A49G A60G C85U, -0.602; with A17U G71A C87G G140U, not above -4.2.
With U44A C76A U82G G100A C103G A137G the figure was not above -4.2; with U102C A150C, -4.08.
Take U56G A73G C87A G94U C118U: the “polymerase ribozyme fitness (log ratio)” value is not above -4.2.
As to C118G A122C, the “polymerase ribozyme fitness (log ratio)” value was -1.49.
As to G25U A30C A47C C99G U101G C105A, the “polymerase ribozyme fitness (log ratio)” value was not above -4.2.
For C96U A142G the value was -1.18; for C76U C85G A147C, -0.612; for G25U A49C G68U G84A C87G A89U G94C C114A U148G, not above -4.2.
With G74A U77G the figure was not above -4.2; with C85G G126A U146A, -1.79.
For G58U U82A A142G the value was -0.998.
As for U56A G94U C95A G143U, the “polymerase ribozyme fitness (log ratio)” value was -3.39.
With A73G C76A G88C C105G C108G C114U G136U, the “polymerase ribozyme fitness (log ratio)” value is -3.91.
Regarding A41C G83A C116A, the “polymerase ribozyme fitness (log ratio)” value is -0.205.
For G25U C85G C132G the value was not above -4.2.
U90A G94U C95U C116G C118G C123G: the “polymerase ribozyme fitness (log ratio)” value was not above -4.2.
With U7G U130A the figure was -4.18; with C103A A120C G124A U134A, -3.66; with U31G G50A, -1.51.
For G86U C149A the value was not above -4.2.
With A39C C76U G83U U104C the figure was not above -4.2; with G58A A73G C116U, 0.431; with G50C G83U, -3.77.
Take A12G U56A A60U G65U A91U C96G A120U: the “polymerase ribozyme fitness (log ratio)” value is not above -4.2.
In the case of A98G G128A, the “polymerase ribozyme fitness (log ratio)” value was -3.02.
For G83C C85G A122U the value was not above -4.2.
For U6A G86C the value was -2.98; for U56A U61A C96U U101A, -1.95.
For A20U C36G G70A the value was -4.1; for U61G A122C, -1.51; for A52C C57U C85U U135A, -1.62.
Regarding A91G U139G, the “polymerase ribozyme fitness (log ratio)” value is -3.56.
For C10G A20U A52C G86A G92U A115U G152A the value was not above -4.2; for A40U C85G, -1.32.
With C8U G84U the figure was -4.13; with U78A C93A G124U, not above -4.2.
As to A28C G65U G68A A91U, the “polymerase ribozyme fitness (log ratio)” value is not above -4.2.
